Experimental data from patent US20240400657A1 (MorphoSys, published 2024).

How the values were obtained:
[1] = target: T1, engineered version of human C5aR expressed on CHO cells of the PathHunter β-arrestin assay (DiscoveRx) (human, UniProt P21730 1-350); experiment: cell-based or functional assay
T1 sequence (looked up): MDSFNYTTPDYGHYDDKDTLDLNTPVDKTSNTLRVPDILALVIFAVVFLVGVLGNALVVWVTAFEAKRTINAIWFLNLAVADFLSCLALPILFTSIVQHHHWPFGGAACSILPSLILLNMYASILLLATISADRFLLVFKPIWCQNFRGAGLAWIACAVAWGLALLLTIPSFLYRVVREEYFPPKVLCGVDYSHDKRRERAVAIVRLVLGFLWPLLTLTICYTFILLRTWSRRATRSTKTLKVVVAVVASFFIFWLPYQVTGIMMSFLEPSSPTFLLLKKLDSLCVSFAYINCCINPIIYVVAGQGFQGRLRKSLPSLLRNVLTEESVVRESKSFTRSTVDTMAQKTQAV

Pepsinogen = experiment: Protein Panel Profiling (3P), MSD ECL, coated antigen, IgG 100 nM
Protocol: (§1) 32 different proteins and controls were coated on two 384-well MSD standard plates at a concentration of 1.0 μg/mL at 4° C. over night. The coating solution was discarded and plates were blocked with 50 μL 3% (w/v) BSA in PBS for one hour at RT on a microtiter plate shaker (˜500 rpm) followed by three washing steps with 50 μL washing buffer (PBS with 0.05% (v/v) Tween 20). IgG samples were diluted to 100 nM and 10 nM in assay buffer (PBS with 0.5% (w/v) BSA, 0.05% (v/v) Tween 20). As controls, isotype control antibody MOR03207 (IgG1f_AEASS) and assay buffer were used. Samples and controls were added at 30 μL/well and incubated for three hours at RT on a microtiter plate shaker. The plates were washed three times and 30 μL detection antibody (ECL-labeled anti-human Fab) were added per well and incubated for one hour on a microtiter plate shaker (˜500 rpm). After washing the MSD plate and adding 35 μL/well MSD Read Buffer T with surfactant, electro-chemiluminescence signals were detected using a SECTOR® Imager S600 instrument (Meso Scale Diagnostics).
(§2) For evaluation, binding signals of the antibody sample to a certain protein were divided by the respective binding signals of the reference antibody MOR03207 resulting in a binding ratio (BR). The cumulative binding ratio (CBR) of all proteins except the controls (25 in total) was then calculated: CBR up to 150 indicates an IgG without detectable unspecific binding. Values above 150 indicates an IgG with increased unspecific binding compared to the reference antibody MOR03207.

RNase A = experiment: as above
Protocol: as §1, §2

Lysozyme = experiment: as above
Protocol: as §1, §2

Myoglobin = experiment: as above
Protocol: as §1, §2

Ovalbumin = experiment: as above
Protocol: as §1, §2

Amyloglycosidase = experiment: as above
Protocol: as §1, §2

[2] = target: T2, Cell surface rec. 3_Fc (h); experiment: as above
T2 construct: identity not disclosed
Protocol: as §1, §2

Antitrypsin = experiment: as above
Protocol: as §1, §2

anti-human Fab (Dianova) = target: T3, anti-human Fab (Dianova); experiment: as above
T3 construct: control of the 3P panel; it captures human IgG as such, so a ratio of 1 means a signal equal to that of MOR03207
Protocol: as §1, §2

Cytochrome C = experiment: as above
Protocol: as §1, §2

[3] = target: T4, Cell surface rec. 1_Lys (h); experiment: as above
T4 construct: identity not disclosed
Protocol: as §1, §2

[4] = target: T5, human C5aR_NT-bio peptide (human, biotin tag (position not given)); experiment: as above
T5 construct: Chemically synthesized linear peptide (Genscript); also called human C5aR N-terminal peptide; human C5aR peptide
T5 peptide: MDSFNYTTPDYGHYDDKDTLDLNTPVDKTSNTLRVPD

Fibrinogen (b) = Fibrinogen (b) (bovine); experiment: as above
Protocol: as §1, §2

RNase B = experiment: as above
Protocol: as §1, §2

anti-human Fc = target: T6, anti-human Fc; experiment: as above
T6 construct: control of the 3P panel; it captures human IgG as such, so a ratio of 1 means a signal equal to that of MOR03207
Protocol: as §1, §2

Serum albumin (h) = target: T7, Serum albumin (h) (human); experiment: as above
T7 construct: '(h)' on the sheet read as human
Protocol: as §1, §2

Fc (h) = target: T8, Fc (h); experiment: as above
T8 construct: '(h)' on the sheet read as human
Protocol: as §1, §2

Trypsinogen = experiment: as above
Protocol: as §1, §2

bovine transferrin = bovine transferrin (bovine, UniProt Q29443 20-704); experiment: as above
Protocol: as §1, §2

Protein A = target: T9, Protein A; experiment: as above
T9 construct: control of the 3P panel
Protocol: as §1, §2

[5] = target: T10, Cell surface rec. 2_Fc (h); experiment: as above
T10 construct: identity not disclosed
Protocol: as §1, §2

Hemoglobin (h) = target: T11, Hemoglobin (h) (human); experiment: as above
T11 construct: '(h)' on the sheet read as human
Protocol: as §1, §2

GFP = experiment: as above
Protocol: as §1, §2

Lectin = experiment: as above
Protocol: as §1, §2

Trypsin inhibitor = experiment: as above
Protocol: as §1, §2

Sequence of Ovalbumin (P01012 2-386): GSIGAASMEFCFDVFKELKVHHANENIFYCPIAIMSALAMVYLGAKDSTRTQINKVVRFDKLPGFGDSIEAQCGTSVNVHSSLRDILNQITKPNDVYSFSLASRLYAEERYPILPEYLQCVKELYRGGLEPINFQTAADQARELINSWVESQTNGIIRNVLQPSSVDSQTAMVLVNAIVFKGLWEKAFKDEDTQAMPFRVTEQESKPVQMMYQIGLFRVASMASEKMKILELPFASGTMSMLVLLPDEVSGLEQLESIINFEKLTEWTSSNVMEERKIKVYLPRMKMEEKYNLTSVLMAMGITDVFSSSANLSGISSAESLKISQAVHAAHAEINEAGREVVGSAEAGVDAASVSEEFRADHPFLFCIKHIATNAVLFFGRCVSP
T11 sequence (P69905 2-142, chain 1 of 2): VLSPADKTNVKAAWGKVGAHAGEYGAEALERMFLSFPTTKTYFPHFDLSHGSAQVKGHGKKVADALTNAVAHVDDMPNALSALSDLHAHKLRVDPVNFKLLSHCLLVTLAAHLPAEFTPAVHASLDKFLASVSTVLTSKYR
T11 sequence (P68871 2-147, chain 2 of 2, further chain): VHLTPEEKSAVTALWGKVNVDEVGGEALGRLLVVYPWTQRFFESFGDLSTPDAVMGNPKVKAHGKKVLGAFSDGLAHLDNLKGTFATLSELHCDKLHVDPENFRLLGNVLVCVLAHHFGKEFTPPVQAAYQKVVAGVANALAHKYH
Sequence of Fibrinogen (b) (bovine) (P02672 20-615, chain 1 of 3): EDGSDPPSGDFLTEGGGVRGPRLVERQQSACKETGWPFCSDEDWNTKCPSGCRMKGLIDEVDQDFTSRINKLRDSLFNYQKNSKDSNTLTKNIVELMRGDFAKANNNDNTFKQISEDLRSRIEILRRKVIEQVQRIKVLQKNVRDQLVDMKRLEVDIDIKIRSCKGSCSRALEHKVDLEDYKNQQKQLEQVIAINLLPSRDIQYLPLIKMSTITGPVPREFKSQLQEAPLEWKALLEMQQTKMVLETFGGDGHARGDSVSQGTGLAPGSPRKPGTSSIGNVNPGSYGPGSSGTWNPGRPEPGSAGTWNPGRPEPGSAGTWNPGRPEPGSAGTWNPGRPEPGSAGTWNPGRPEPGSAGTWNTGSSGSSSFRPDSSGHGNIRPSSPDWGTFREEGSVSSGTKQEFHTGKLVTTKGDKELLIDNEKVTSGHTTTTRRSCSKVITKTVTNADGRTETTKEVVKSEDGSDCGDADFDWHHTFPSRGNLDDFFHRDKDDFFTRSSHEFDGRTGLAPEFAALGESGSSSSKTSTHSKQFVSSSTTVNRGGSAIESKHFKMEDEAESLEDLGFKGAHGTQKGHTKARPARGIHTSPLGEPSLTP
Sequence of Fibrinogen (b) (bovine) (P02676 whole entry, chain 2 of 3, further chain): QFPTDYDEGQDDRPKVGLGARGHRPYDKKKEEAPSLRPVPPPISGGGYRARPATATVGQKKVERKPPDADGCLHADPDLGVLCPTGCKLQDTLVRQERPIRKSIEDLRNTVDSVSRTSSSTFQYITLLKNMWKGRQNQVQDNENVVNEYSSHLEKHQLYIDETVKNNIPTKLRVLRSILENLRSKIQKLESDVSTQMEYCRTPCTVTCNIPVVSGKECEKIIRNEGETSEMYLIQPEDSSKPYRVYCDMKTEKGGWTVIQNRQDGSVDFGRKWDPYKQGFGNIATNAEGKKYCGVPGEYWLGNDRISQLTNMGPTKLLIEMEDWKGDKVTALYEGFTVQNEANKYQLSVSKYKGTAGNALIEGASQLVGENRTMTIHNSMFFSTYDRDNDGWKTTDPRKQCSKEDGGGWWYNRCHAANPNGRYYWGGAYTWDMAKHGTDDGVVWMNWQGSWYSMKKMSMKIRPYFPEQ
Sequence of Fibrinogen (b) (bovine) (P12799 25-444, chain 3 of 3, further chain): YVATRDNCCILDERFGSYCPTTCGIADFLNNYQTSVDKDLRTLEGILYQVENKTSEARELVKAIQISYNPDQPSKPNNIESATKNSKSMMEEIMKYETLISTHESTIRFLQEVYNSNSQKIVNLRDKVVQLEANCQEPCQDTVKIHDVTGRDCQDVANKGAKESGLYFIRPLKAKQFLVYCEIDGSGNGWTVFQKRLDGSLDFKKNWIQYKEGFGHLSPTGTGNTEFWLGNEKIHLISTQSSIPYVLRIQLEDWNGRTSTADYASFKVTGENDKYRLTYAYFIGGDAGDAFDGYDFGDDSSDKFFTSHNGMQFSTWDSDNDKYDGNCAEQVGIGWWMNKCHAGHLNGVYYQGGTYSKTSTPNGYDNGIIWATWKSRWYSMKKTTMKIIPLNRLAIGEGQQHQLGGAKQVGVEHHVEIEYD
Sequence of RNase A (P61823 27-150): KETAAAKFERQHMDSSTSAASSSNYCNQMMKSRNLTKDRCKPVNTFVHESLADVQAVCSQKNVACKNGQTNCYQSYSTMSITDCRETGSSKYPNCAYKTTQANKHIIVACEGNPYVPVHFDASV
Sequence of RNase B (P61823 27-150): as above
Sequence of bovine transferrin (Q29443 20-704 limits assumed): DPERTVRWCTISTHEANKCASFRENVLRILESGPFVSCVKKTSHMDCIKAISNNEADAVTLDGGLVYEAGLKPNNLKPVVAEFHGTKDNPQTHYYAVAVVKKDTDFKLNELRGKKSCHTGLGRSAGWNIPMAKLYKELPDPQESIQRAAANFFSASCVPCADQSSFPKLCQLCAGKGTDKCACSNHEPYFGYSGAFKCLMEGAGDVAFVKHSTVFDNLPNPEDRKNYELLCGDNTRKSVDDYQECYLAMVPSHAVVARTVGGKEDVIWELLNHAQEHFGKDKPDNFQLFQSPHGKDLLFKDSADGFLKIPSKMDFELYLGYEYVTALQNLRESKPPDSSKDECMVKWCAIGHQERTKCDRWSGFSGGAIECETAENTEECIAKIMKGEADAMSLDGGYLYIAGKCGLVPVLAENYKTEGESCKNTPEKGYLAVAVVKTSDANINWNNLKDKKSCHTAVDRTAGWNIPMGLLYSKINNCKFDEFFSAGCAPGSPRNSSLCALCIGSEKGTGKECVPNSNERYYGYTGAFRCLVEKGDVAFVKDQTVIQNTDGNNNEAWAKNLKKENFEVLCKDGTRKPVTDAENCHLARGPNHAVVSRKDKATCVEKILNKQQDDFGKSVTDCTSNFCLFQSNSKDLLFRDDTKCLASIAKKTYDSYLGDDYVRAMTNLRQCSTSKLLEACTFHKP
Sequence of Lysozyme (P00698 19-147): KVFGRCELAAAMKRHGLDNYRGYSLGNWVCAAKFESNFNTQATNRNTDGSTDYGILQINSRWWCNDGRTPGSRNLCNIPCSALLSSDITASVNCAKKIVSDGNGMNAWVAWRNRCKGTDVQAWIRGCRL
T7 sequence (P02768 25-609): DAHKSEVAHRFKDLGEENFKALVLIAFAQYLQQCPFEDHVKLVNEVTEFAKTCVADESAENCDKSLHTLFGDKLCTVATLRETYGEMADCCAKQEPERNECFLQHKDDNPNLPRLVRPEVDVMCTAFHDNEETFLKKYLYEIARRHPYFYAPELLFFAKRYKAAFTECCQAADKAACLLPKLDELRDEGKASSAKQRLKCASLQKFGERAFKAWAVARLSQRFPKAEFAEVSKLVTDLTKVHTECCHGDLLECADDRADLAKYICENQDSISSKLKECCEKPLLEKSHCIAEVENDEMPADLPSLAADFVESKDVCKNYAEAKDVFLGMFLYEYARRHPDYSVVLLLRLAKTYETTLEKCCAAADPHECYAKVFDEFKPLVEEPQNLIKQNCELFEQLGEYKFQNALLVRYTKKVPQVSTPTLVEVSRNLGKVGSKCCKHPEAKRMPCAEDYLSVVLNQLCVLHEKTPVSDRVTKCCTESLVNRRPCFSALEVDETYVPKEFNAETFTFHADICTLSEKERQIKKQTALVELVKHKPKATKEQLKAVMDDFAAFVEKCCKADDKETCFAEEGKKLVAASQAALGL

B1: MAB #2 (antibody, human IgG1, lambda)
heavy: EVQLVESGGGLVKPGGSLRLSCAASGFTFSSYAMHWVRQAPGKGLEWVGRIKSVAQGGTTDYAAHVKGRFTISRDDSKNTLYLQMNSLKTEDTAVYYCARVSHSTFDVWGQGTLVTVSSASTKGPSVFPLAPSSKSTSGGTAALGCLVKDYFPEPVTVSWNSGALTSGVHTFPAVLQSSGLYSLSSVVTVPSSSLGTQTYICNVNHKPSNTKVDKRVEPKSCDKTHTCPPCPAPEAEGAPSVFLFPPKPKDTLMISRTPEVTCVVVDVSHEDPEVKFNWYVDGVEVHNAKTKPREEQYNSTYRVVSVLTVLHQDWLNGKEYKCKVSNKALPSSIEKTISKAKGQPREPQVYTLPPSREEMTKNQVSLTCLVKGFYPSDIAVEWESNGQPENNYKTTPPVLDSDGSFFLYSKLTVDKSRWQQGNVFSCSVMHEALHNHYTQKSLSLSPGK
light: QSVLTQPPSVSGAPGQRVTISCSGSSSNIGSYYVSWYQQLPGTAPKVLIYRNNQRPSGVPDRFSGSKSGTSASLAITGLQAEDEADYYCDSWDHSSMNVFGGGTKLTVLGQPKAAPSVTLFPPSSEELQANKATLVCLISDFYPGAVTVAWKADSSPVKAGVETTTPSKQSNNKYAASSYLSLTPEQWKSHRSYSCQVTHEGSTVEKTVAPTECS
notes: lambda 1 light chain
[1]
  Activity of human C5a EC50 (nM) in presence of 50 nM anti-C5aR antibody, β-arrestin recruitment: 37 nM
  x fold reduced activity of C5a in presence of anti-C5aR antibody (50 nM): 12.8 fold
Pepsinogen
  binding ratio (signal / signal of MOR03207): 5
RNase A
  binding ratio (signal / signal of MOR03207): 6
Lysozyme
  binding ratio (signal / signal of MOR03207): 2
Myoglobin
  binding ratio (signal / signal of MOR03207): 2
Ovalbumin
  binding ratio (signal / signal of MOR03207): 4
Amyloglycosidase
  binding ratio (signal / signal of MOR03207): 2
[2]
  binding ratio (signal / signal of MOR03207): 2
Antitrypsin
  binding ratio (signal / signal of MOR03207): 2
anti-human Fab (Dianova)
  binding ratio (signal / signal of MOR03207): 1
Cytochrome C
  binding ratio (signal / signal of MOR03207): 2
[3]
  binding ratio (signal / signal of MOR03207): 2
[4]
  binding ratio (signal / signal of MOR03207): 49
Fibrinogen (b)
  binding ratio (signal / signal of MOR03207): 2
RNase B
  binding ratio (signal / signal of MOR03207): 2
anti-human Fc
  binding ratio (signal / signal of MOR03207): 1
Serum albumin (h)
  binding ratio (signal / signal of MOR03207): 2
Fc (h)
  binding ratio (signal / signal of MOR03207): 3
Trypsinogen
  binding ratio (signal / signal of MOR03207): 2
Bovine transferrin
  binding ratio (signal / signal of MOR03207): 9
Protein A
  binding ratio (signal / signal of MOR03207): 1
[5]
  binding ratio (signal / signal of MOR03207): 2
Hemoglobin (h)
  binding ratio (signal / signal of MOR03207): 2
GFP
  binding ratio (signal / signal of MOR03207): 2
Lectin
  binding ratio (signal / signal of MOR03207): 2
Trypsin inhibitor
  binding ratio (signal / signal of MOR03207): 7

B2: MAB #1 (antibody, human IgG1, lambda)
heavy: EVQLVESGGGLVKPGGSLRLSCAASGFTFSSYAMHWVRQAPGKGLEWVGRIKSKAQGGTTDYAAHVKGRFTISRDDSKNTLYLQMNSLKTEDTAVYYCARVSFSTFDVWGQGTLVTVSSASTKGPSVFPLAPSSKSTSGGTAALGCLVKDYFPEPVTVSWNSGALTSGVHTFPAVLQSSGLYSLSSVVTVPSSSLGTQTYICNVNHKPSNTKVDKRVEPKSCDKTHTCPPCPAPEAEGAPSVFLFPPKPKDTLMISRTPEVTCVVVDVSHEDPEVKFNWYVDGVEVHNAKTKPREEQYNSTYRVVSVLTVLHQDWLNGKEYKCKVSNKALPSSIEKTISKAKGQPREPQVYTLPPSREEMTKNQVSLTCLVKGFYPSDIAVEWESNGQPENNYKTTPPVLDSDGSFFLYSKLTVDKSRWQQGNVFSCSVMHEALHNHYTQKSLSLSPGK
light: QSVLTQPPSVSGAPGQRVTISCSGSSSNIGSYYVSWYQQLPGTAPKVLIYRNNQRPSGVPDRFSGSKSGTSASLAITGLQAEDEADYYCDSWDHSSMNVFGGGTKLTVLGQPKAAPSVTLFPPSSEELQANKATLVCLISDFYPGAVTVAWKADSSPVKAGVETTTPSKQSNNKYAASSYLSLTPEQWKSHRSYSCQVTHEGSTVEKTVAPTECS
notes: lambda 1 light chain, VH3-15 framework
[1]
  Activity of human C5a EC50 (nM) in presence of 50 nM anti-C5aR antibody, β-arrestin recruitment: 37 nM
  x fold reduced activity of C5a in presence of anti-C5aR antibody (50 nM): 12.8 fold
Pepsinogen
  binding ratio (signal / signal of MOR03207): 4
RNase A
  binding ratio (signal / signal of MOR03207): 4
Lysozyme
  binding ratio (signal / signal of MOR03207): 2
Myoglobin
  binding ratio (signal / signal of MOR03207): 2
Ovalbumin
  binding ratio (signal / signal of MOR03207): 2
Amyloglycosidase
  binding ratio (signal / signal of MOR03207): 3
[2]
  binding ratio (signal / signal of MOR03207): 2
Antitrypsin
  binding ratio (signal / signal of MOR03207): 2
anti-human Fab (Dianova)
  binding ratio (signal / signal of MOR03207): 1
Cytochrome C
  binding ratio (signal / signal of MOR03207): 2
[3]
  binding ratio (signal / signal of MOR03207): 2
[4]
  binding ratio (signal / signal of MOR03207): 84
Fibrinogen (b)
  binding ratio (signal / signal of MOR03207): 2
RNase B
  binding ratio (signal / signal of MOR03207): 2
anti-human Fc
  binding ratio (signal / signal of MOR03207): 1
Serum albumin (h)
  binding ratio (signal / signal of MOR03207): 2
Fc (h)
  binding ratio (signal / signal of MOR03207): 2
Trypsinogen
  binding ratio (signal / signal of MOR03207): 2
Bovine transferrin
  binding ratio (signal / signal of MOR03207): 19
Protein A
  binding ratio (signal / signal of MOR03207): 1
[5]
  binding ratio (signal / signal of MOR03207): 2
Hemoglobin (h)
  binding ratio (signal / signal of MOR03207): 2
GFP
  binding ratio (signal / signal of MOR03207): 2
Lectin
  binding ratio (signal / signal of MOR03207): 2
Trypsin inhibitor
  binding ratio (signal / signal of MOR03207): 5
